Assays:
[1] = molecular target: T1, GST-TRAPΔN (TRAP150 266-955) (UniProt Q9Y2W1 266-955); assay: pull-down; 40 ug GST-tagged bait on glutathione sepharose 4B beads; prey incubated 1.5 h at 4°C in PBS; washes with PBS supplemented with 300 mM NaCl; western blot; details: both partners purified
T1 construct: pGEX-6-P1; also called GST-TRAP150ΔN; TRAP150-ΔN; source: E. coli Rosetta(DE3)pLysS, purified (glutathione sepharose, SEC); not shown: GST, N-terminal, kept
T1 sequence (looked up): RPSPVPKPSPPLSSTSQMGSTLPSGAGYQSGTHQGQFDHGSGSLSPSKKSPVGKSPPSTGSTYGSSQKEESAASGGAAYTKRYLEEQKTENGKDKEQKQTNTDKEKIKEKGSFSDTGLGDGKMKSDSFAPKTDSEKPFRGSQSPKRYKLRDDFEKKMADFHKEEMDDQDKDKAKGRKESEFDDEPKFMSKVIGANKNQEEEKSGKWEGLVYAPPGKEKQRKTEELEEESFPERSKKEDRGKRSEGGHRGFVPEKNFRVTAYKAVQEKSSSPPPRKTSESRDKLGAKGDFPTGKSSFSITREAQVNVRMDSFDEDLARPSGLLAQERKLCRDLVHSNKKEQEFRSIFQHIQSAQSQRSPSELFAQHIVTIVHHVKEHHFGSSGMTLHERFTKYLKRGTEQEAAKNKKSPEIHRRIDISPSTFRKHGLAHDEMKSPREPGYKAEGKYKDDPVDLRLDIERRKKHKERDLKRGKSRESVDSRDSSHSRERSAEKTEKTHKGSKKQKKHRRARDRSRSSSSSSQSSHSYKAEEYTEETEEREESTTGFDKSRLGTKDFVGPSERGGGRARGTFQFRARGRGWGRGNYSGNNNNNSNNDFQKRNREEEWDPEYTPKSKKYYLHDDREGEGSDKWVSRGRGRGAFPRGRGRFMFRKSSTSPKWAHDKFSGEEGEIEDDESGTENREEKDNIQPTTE

[2] = molecular target: T2, GST-TRAP266–755 (UniProt Q9Y2W1 266-755); assay: as above; details: both partners purified
T2 construct: source: E. coli Rosetta(DE3)pLysS, purified (glutathione sepharose, SEC); not shown: GST, N-terminal, kept
T2 sequence (looked up): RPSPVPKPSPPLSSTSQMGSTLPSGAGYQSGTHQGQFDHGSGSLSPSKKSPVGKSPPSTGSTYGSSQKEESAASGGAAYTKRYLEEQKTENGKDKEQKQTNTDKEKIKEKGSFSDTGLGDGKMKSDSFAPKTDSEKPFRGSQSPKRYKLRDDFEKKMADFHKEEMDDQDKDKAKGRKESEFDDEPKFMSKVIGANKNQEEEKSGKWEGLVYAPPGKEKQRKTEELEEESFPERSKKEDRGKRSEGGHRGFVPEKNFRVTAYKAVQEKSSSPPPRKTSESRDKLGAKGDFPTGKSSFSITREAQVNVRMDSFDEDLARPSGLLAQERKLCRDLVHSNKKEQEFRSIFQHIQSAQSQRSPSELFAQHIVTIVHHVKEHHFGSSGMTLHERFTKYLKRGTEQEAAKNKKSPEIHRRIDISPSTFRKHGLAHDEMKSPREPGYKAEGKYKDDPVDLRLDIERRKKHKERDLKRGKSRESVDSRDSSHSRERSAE

[3] = molecular target: T3, PSF full-length (PSF-FL) (human, UniProt P23246 1-707); assay: UV crosslinking; higher affinity than exRRMs; UV crosslinking: 12 mM Tris pH 7.5, 120 mM NaCl, 3 mM MgCl2, 1 mM ATP, 20 mM phosphocreatine, 0.1 mM EDTA, 12% glycerol, 1.3% PVA, 25 ng/ul yeast tRNA, 20 ng/ul; details: protein: recombinant; tags: 6xHis-FLAG N-term; chain copies: 2; label: uniform 32P
T3 sequence: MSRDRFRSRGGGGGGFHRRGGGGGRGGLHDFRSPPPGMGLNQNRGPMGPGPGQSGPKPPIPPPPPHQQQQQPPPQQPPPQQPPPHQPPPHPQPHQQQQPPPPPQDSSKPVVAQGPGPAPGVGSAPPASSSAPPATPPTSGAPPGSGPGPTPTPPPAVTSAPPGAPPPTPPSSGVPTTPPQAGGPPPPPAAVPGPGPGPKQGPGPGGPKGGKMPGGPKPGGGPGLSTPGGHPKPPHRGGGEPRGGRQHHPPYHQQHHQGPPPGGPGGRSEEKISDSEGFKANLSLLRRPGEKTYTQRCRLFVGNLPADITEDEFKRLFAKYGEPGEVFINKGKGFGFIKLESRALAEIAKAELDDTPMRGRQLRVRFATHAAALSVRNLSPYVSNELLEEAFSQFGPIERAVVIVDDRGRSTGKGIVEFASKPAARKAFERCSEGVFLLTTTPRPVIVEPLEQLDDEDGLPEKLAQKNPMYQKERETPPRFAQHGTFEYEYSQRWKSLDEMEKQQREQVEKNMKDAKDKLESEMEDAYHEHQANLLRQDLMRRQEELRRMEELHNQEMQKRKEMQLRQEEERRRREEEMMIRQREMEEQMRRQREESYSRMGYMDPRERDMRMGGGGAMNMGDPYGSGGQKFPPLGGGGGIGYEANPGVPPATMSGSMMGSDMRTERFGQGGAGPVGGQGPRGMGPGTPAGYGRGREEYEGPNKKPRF

[4] = molecular target: T4, hnRNP L (UniProt P14866 1-589); assay: UV crosslinking competition; GST-TRAP150 PID (686-755), no inhibition; UV crosslinking: 12 mM Tris pH 7.5, 120 mM NaCl, 3 mM MgCl2, 1 mM ATP, 20 mM phosphocreatine, 0.1 mM EDTA, 12% glycerol, 1.3% PVA, 25 ng/ul yeast tRNA, 20 ng/ul; details: protein: recombinant; tags: 6xHis; label: uniform 32P
T4 sequence: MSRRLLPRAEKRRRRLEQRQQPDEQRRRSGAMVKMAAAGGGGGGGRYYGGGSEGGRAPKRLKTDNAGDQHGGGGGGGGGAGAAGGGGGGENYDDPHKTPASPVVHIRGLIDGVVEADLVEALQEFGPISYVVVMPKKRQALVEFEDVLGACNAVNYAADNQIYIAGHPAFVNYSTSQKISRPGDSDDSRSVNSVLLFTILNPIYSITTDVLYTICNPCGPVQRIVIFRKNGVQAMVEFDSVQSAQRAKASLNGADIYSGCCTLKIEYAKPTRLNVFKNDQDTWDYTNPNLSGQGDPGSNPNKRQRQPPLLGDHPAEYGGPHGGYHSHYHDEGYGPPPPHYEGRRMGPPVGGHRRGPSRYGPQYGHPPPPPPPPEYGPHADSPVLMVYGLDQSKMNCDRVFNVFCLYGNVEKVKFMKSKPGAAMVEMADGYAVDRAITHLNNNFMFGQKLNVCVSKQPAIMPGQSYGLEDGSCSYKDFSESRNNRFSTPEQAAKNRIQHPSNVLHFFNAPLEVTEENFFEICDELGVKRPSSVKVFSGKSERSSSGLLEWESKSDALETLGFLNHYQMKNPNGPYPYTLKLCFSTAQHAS

[5] = molecular target: T5, PSF minRRMs (human, UniProt P23246 299-449); assay: as above; details: protein: recombinant; tags: 6xHis-FLAG N-term; label: uniform 32P
T5 sequence: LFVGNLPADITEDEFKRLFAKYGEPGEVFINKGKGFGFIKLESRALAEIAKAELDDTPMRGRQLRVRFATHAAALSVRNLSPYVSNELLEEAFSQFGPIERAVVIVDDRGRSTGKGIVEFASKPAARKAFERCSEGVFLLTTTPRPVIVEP

[6] = molecular target: T6, PSF exRRM2 (human, UniProt P23246 366-484); assay: EMSA; affinity similar to exRRMs; UV crosslinking: 12 mM Tris pH 7.5, 120 mM NaCl, 3 mM MgCl2, 1 mM ATP, 20 mM phosphocreatine, 0.1 mM EDTA, 12% glycerol, 1.3% PVA, 25 ng/ul yeast tRNA, 20 ng/ul; details: protein: recombinant; tags: 6xHis-FLAG N-term; label: uniform 32P
T6 sequence: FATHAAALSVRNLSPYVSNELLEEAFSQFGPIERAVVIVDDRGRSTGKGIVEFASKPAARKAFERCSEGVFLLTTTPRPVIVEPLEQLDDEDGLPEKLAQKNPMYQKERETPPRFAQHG

[7] = molecular target: T7, PSF exRRMs (human, UniProt P23246 266-484); assay: EMSA; UV crosslinking: 12 mM Tris pH 7.5, 120 mM NaCl, 3 mM MgCl2, 1 mM ATP, 20 mM phosphocreatine, 0.1 mM EDTA, 12% glycerol, 1.3% PVA, 25 ng/ul yeast tRNA, 20 ng/ul; details: protein: recombinant; tags: 6xHis-FLAG N-term; label: uniform 32P
T7 sequence: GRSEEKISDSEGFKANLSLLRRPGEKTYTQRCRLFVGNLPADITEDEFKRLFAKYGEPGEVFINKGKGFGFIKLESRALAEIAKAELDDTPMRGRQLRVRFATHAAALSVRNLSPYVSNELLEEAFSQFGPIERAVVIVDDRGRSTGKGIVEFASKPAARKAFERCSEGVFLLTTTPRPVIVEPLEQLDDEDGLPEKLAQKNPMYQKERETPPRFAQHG

Measured: binding result

B1: HisFLAG-PSF exRRMs (266-484) (domain or fragment, UniProt P23246 266-484, looked up)
chain: T7 sequence
notes: also called HisFLAG-exRRMs; HFexRRM1+2; source: E. coli Rosetta(DE3)pLysS, purified (Ni-NTA, SEC); not shown: His6, N-terminal, kept; FLAG, N-terminal, kept
binds: [1] | [2]

B2: ESS1 (ssRNA)
RNA: ACGCGUCCACUUUCAAGUGACCCCUUACCUACUCACACCACUGCAUUCUCACCCGCAAGCACCUUUGACGCGU
not listed: [1] | [2]
binds: all other assays above

Source: paper PMC4605305, “TRAP150 interacts with the RNA-binding domain of PSF and antagonizes splicing of numerous PSF-target genes in T cells” (Nucleic Acids Research, 2015)
